Experimental data as given in IntAct's records for PubMed 33053321.

B1: Signal recognition particle subunit SRP54 (Saccharomyces cerevisiae), P20424 (parent)
chain: MVLADLGKRINSAVNNAISNTQDDFTTSVDVMLKGIVTALLESDVNIALVSKLRNNIRSQLLSENRSEKSTTNAQTKKLIQKTVFDELCKLVTCEGSEEKAFVPKKRKTNIIMFVGLQGSGKTTSCTKLAVYYSKRGFKVGLVCADTFRAGAFDQLKQNAIRARIPFYGSYTETDPAKVAEEGINKFKKEKFDIIIVDTSGRHHQEEELFQEMIEISNVIKPNQTIMVLDASIGQAAEQQSKAFKESSDFGAIILTKMDGHARGGGAISAVAATNTPIIFIGTGEHIHDLEKFSPKSFISKLLGIGDIESLFEQLQTVSNKEDAKATMENIQKGKFTLLDFKKQMQTIMKMGPLSNIAQMIPGMSNMMNQVGEEETSQKMKKMVYVLDSMTKEELESDGRMFIEEPTRMVRVAKGSGTSVFEVEMILMQQQMMARMAQTATQQQPGAPGANARMPGMPNMPGMPNMPGMPNMPGMPKVTPQMMQQAQQKLKQNPGLMQNMMNMFGGGMGGGMGGGMPDMNEMMKMMQDPQMQQMAKQFGMG
partner: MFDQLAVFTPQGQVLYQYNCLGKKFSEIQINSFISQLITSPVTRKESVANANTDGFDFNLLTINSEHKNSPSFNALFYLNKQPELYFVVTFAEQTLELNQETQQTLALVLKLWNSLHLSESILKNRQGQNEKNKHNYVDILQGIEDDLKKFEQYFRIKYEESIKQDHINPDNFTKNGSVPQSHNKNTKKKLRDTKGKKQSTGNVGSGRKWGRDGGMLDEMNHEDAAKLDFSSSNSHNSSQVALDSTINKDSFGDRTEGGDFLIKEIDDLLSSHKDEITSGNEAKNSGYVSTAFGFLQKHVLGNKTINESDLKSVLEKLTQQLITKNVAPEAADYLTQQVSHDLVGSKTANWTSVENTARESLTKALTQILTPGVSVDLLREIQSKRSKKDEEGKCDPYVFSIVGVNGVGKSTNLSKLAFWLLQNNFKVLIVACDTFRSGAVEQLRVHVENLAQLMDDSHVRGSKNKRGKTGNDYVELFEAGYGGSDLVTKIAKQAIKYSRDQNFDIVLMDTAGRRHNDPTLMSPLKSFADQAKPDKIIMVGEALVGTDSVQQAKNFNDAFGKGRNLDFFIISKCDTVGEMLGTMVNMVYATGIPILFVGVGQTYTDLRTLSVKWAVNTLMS
B2: Signal recognition particle subunit SRP54 (Homo sapiens), P61011 (parent)
chain: MVLADLGRKITSALRSLSNATIINEEVLNAMLKEVCTALLEADVNIKLVKQLRENVKSAIDLEEMASGLNKRKMIQHAVFKELVKLVDPGVKAWTPTKGKQNVIMFVGLQGSGKTTTCSKLAYYYQRKGWKTCLICADTFRAGAFDQLKQNATKARIPFYGSYTEMDPVIIASEGVEKFKNENFEIIIVDTSGRHKQEDSLFEEMLQVANAIQPDNIVYVMDASIGQACEAQAKAFKDKVDVASVIVTKLDGHAKGGGALSAVAATKSPIIFIGTGEHIDDFEPFKTQPFISKLLGMGDIEGLIDKVNELKLDDNEALIEKLKHGQFTLRDMYEQFQNIMKMGPFSQILGMIPGFGTDFMSKGNEQESMARLKKLMTIMDSMNDQELDSTDGAKVFSKQPGRIQRVARGSGVSTRDVQELLTQYTKFAQMVKKMGGIKGLFKGGDMSKNVSQSQMAKLNQQMAKMMDPRVLHHMGGMAGLQSMMRQFQQGAAGNMKGMMGFNNM
partner: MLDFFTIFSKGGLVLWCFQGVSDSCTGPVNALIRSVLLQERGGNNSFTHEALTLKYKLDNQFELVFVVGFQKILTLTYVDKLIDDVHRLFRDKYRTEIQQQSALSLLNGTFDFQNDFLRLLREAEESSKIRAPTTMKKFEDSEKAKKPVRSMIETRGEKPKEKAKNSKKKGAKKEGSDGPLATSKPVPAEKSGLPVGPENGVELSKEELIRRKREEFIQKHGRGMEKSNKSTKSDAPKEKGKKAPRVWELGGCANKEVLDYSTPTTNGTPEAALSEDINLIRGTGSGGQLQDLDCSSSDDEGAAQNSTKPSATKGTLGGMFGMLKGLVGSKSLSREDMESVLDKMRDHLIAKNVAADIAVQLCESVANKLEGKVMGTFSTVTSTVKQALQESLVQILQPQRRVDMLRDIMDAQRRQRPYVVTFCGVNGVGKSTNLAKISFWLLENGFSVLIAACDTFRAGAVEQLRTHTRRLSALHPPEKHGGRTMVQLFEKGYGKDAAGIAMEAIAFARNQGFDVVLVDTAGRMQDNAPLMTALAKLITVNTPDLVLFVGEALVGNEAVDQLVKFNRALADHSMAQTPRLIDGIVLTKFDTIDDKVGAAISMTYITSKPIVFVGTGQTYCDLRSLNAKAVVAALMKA

Variants of: B1
Details: with srpr_yeast SRP101, P32916

effect of a mutation on the interaction	Variant
disrupting interaction strength	MVLADLGKRINSAVNNAISNTQDDFTTSVDVMLKGIVTALLESDVNIALVSKLRNNIRSQLLSENRSEKSTTNAQTKKLIQKTVFDELCKLVTCEGSEEKAFVPKKRKTNIIMFVGLQGSGKTTSCTKLAVYYSKRGFKVGLVCADTFRAGAFDQLKQNAIRARIPFYGSYTETDPAKVAEEGINKFKKEKFDIIIVDTSGRHHQEEELFQEMIEISNVIKPNQTIMVLDASIEQAAEQQSKAFKESSDFGAIILTKMDGHARGGGAISAVAATNTPIIFIGTGEHIHDLEKFSPKSFISKLLGIGDIESLFEQLQTVSNKEDAKATMENIQKGKFTLLDFKKQMQTIMKMGPLSNIAQMIPGMSNMMNQVGEEETSQKMKKMVYVLDSMTKEELESDGRMFIEEPTRMVRVAKGSGTSVFEVEMILMQQQMMARMAQTATQQQPGAPGANARMPGMPNMPGMPNMPGMPNMPGMPKVTPQMMQQAQQKLKQNPGLMQNMMNMFGGGMGGGMGGGMPDMNEMMKMMQDPQMQQMAKQFGMG [G234E]

Variants of: B2
Details: with srpra_human SRPRA

effect of a mutation on the interaction	Variant
disrupting interaction strength	G226E
decreasing interaction strength	T115A
